# ± gives the standard error. This sample holds only a part of the variants without activity.
# B1: glmS ribozyme (parent)
# chain: AUAAAAGCGCCAGAACUACAGAAAUGUAGUUGACGAGGAGGAGGUUUAUCGAAUUUUCGGCGGAUGCCUCCAAA
# Experiments:
# Conditions in all cases: with glucosamine-6-phosphate
# glucosamine-6-phosphate [1] = variants of: B1; assay: self-cleavage kobs at 40 uM GlcN6P; higher = faster cleavage; RNA array
# Outline: (§1)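 Barcoded ribozyme variants were transcribed in situ on sequenced MiSeq chips by E. coli RNA polymerase. At 37 °C, a hybridised Cy3 probe tracked them while glucosamine-6-phosphate (40 μM to 10 mM) in HEPES/KCl/Mg(OAc)2 buffer flowed in and tiles were imaged over ~14 h. Per-tile medians of signals normalised to baseline and to non-cleaving reference variants were fit to one- or two-exponential decays, giving kobs. kcat and KM came from weighted Michaelis–Menten fits across concentrations.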
# glucosamine-6-phosphate [2] = variants of: B1; assay: self-cleavage kobs at 640 uM GlcN6P; higher = faster cleavage; RNA array
# Outline: as §1
# glucosamine-6-phosphate [3] = variants of: B1; assay: self-cleavage kobs at 160 uM GlcN6P; higher = faster cleavage; RNA array
# Outline: as §1
# glucosamine-6-phosphate [4] = variants of: B1; assay: self-cleavage kobs at 2500 uM GlcN6P; higher = faster cleavage; RNA array
# Outline: as §1
# glucosamine-6-phosphate [5] = variants of: B1; assay: self-cleavage kobs at 10000 uM GlcN6P; higher = faster cleavage; RNA array
# Outline: as §1
Variant,self-cleavage kobs at 40 uM GlcN6P (glucosamine-6-phosphate [1]) [s⁻¹],self-cleavage kobs at 640 uM GlcN6P (glucosamine-6-phosphate [2]) [s⁻¹],self-cleavage kobs at 160 uM GlcN6P (glucosamine-6-phosphate [3]) [s⁻¹],self-cleavage kobs at 2500 uM GlcN6P (glucosamine-6-phosphate [4]) [s⁻¹],self-cleavage kobs at 10000 uM GlcN6P (glucosamine-6-phosphate [5]) [s⁻¹]
G13C G66C,< 1e-05,< 1e-05,,,
A15G G59C,< 1e-05,< 1e-05,< 1e-05,,
A15C U46A C58U,< 1e-05,,,,
A15G A48U U57C,< 1e-05,,< 1e-05,< 1e-05,< 1e-05
G13U G41C U46G C50G,< 1e-05,,,,
G13U G35C,< 1e-05,< 1e-05,< 1e-05,< 1e-05,< 1e-05
G13U A36G,< 1e-05,< 1e-05,< 1e-05,< 1e-05,< 1e-05
A15C A33C A64U,< 1e-05,,,,< 1e-05
A14C C34U G60U,< 1e-05,< 1e-05,,< 1e-05,< 1e-05
A15G G66A,0.000603 ± 8.4e-05,0.00506 ± 0.0011,0.00153 ± 0.00044,0.00542 ± 0.0014,0.0412 ± 0.011
C16G A42G,0.000233 ± 5.6e-05,0.000804 ± 0.0003,0.000208 ± 9.6e-05,,0.00496 ± 0.001
C16G A42U,< 1e-05,,< 1e-05,,
A14C A64U,< 1e-05,< 1e-05,< 1e-05,,
C16A G37C A48U U49C A52G G62C,< 1e-05,,,,< 1e-05
A14U A53G,0.000202 ± 2.5e-05,0.00204 ± 0.00026,0.000311 ± 5.2e-05,0.00365 ± 0.00059,0.00969 ± 0.0011
A15G A52G G63U,< 1e-05,,,,< 1e-05
A14U U56C,5.38e-05 ± 1.8e-05,0.000234 ± 4.8e-05,,0.000307 ± 7.6e-05,0.00138 ± 0.00027
A15G U31C,0.000207 ± 3.4e-05,0.00208 ± 0.00026,0.00035 ± 8.7e-05,0.00542 ± 0.0013,0.0123 ± 0.0028
C16A A36G,< 1e-05,< 1e-05,< 1e-05,,< 1e-05
A15G U54A C71A,0.000174 ± 5.4e-05,,,,0.00522 ± 0.0014
A15C G51A,< 1e-05,,< 1e-05,,< 1e-05
A14G G29C G40A C58U,< 1e-05,< 1e-05,,,

Variant,self-cleavage kobs at 40 uM GlcN6P (glucosamine-6-phosphate [1]) [s⁻¹],self-cleavage kobs at 640 uM GlcN6P (glucosamine-6-phosphate [2]) [s⁻¹],self-cleavage kobs at 160 uM GlcN6P (glucosamine-6-phosphate [3]) [s⁻¹],self-cleavage kobs at 2500 uM GlcN6P (glucosamine-6-phosphate [4]) [s⁻¹],self-cleavage kobs at 10000 uM GlcN6P (glucosamine-6-phosphate [5]) [s⁻¹]
A14U A15G G43C,< 1e-05,< 1e-05,,< 1e-05,
G13U A33C,< 1e-05,< 1e-05,< 1e-05,< 1e-05,
A15U G60U,< 1e-05,< 1e-05,< 1e-05,< 1e-05,< 1e-05
A15G U55A,0.000962 ± 0.00014,0.0107 ± 0.0017,0.00144 ± 0.00025,,0.0387 ± 0.0094
C16A G51U A64C,< 1e-05,,,< 1e-05,< 1e-05
A14U G37U,< 1e-05,< 1e-05,,,< 1e-05
A14C A36G C71U,< 1e-05,,,,
A15C G35U C50U,< 1e-05,,,< 1e-05,< 1e-05
A15U A39U U46A,< 1e-05,,,,
C16A G29U U31C,3.38e-05 ± 1.4e-05,,,,0.000493 ± 0.00013
A15G U54A G62C U65A,< 1e-05,< 1e-05,,< 1e-05,< 1e-05
A14C U31G A39U,0.000119 ± 2.4e-05,0.0016 ± 0.00039,,,0.0112 ± 0.003
A15U C16A G40A C68U U69A,< 1e-05,,,,< 1e-05
A14G A39G,0.004 ± 0.00057,0.0236 ± 0.0054,0.00304 ± 0.00096,,0.138 ± 0.052
A14U A48C G51C U65G,< 1e-05,,,,< 1e-05
A14G U45G A64U,< 1e-05,,,,
A14G C50A G51A,< 1e-05,,,< 1e-05,
A15G A36G G44U,< 1e-05,,,< 1e-05,
G13U G37A,< 1e-05,,< 1e-05,,6.96e-05 ± 8.5e-06
A15G U30G C70U,0.000184 ± 5.6e-05,0.00102 ± 0.00026,,,0.0318 ± 0.013
A15C C50G G62U,4.56e-05 ± 2.2e-05,6.39e-05 ± 2.8e-05,,0.000111 ± 3.3e-05,

# — the supplement of paper PMC7125110
